Results on 1 protein are retold here after patent publication US20050272633.

The target in the data set is T1, IL-2 receptor common gamma chain (cγc), full length (1-369), P31785.
T1 chain: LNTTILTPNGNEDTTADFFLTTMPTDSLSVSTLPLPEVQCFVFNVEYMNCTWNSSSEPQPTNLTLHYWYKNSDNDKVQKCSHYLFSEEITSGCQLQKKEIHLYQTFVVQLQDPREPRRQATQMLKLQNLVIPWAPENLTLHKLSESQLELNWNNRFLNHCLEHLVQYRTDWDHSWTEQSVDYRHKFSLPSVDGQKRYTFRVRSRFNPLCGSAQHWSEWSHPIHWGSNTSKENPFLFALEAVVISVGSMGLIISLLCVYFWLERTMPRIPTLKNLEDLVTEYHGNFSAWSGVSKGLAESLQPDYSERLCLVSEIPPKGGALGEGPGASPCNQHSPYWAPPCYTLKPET

B1: myc tagged NIK (pcS3MTNIK) (protein)
chain: MAVMEMACPGAPGSAVGQQKELPKAKEKTPPLGKKQSSVYKLEAVEKSPVFCGKWEILNDVITKGTAKEGSEAGPAAISIIAQAECENSQEFSPTFSERIFIAGSKQYSQSESLDQIPNNVAHATEGKMARVCWKGKRRSKARKKRKKKSSKSLAHAGVALAKPLPRTPEQESCTIPVQEDESPLGAPYVRNTPQFTKPLKEPGLGQLCFKQLGEGLRPALPRSELHKLISPLQCLNHVWKLHHPQDGGPLPLPTHPFPYSRLPHPFPFHPLQPWKPHPLESFLGKLACVDSQKPLPDPHLSKLACVDSPKPLPGPHLEPSCLSRGAHEKFSVEEYLVHALQGSVSSGQAHSLTSLAKTWAARGSRSREPSPKTEDNEGVLLTEKLKPVDYEYREEVHWATHQLRLGRGSFGEVHRMEDKQTGFQCAVKKVRLEVFRAEELMACAGLTSPRIVPLYGAVREGPWVNIFMELLEGGSLGQLVKEQGCLPEDRALYYLGQALEGLEYLHSRRILHGDVKADNVLLSSDGSHAALCDFGHAVCLQPDGLGKSLLTGDYIPGTETHMAPEVVLGRSCDAKVDVWSSCCMMLHMLNGCHPWTQFFRGPLCLKIASEPPPVREIPPSCAPLTAQAIQEGLRKEPIHRVSAAELGGKVNRALQQVGGLKSPWRGEYKEPRHPPPNQANYHQTLHAQPRELSPRAPGPRPAEETTGRAPKLQPPLPPEPPEPNKSPPLTLSKEESGMWEPLPLSSLEPAPARNPSSPERKATVPEQELQQLEIELFLNSLSQPFSLEEQEQILSCLSIDSLSLSDDSEKNPSKASQSSRDTLSSGVHSWSSQAEARSSSWNMVLARGRPTDTPSYFNGVKVQIQSLNGEHLHIREFHRVKVGDIATGISSQIPAAAFSLVTKDGQPVRYDMEVPDSGIDLQCTLAPDGSFAWSWRVKHGQLENRP
In the case of B1, the “in vitro kinase assay of anti NIK immunoprecipitates: NIK self- and IKK1-phosphorylation” value was “A three fold increase in phosphorylation of NIK self- and IKK1-phosphorylation was observed in the presence of cγc”.
